# Reference: patent publication US20170306033A1 (Amgen, published 2017)
# Residue numbers refer to the chain shown, from its start.
# T1: human PAC1 receptor (human, UniProt P41586 21-468)
# T1 sequence: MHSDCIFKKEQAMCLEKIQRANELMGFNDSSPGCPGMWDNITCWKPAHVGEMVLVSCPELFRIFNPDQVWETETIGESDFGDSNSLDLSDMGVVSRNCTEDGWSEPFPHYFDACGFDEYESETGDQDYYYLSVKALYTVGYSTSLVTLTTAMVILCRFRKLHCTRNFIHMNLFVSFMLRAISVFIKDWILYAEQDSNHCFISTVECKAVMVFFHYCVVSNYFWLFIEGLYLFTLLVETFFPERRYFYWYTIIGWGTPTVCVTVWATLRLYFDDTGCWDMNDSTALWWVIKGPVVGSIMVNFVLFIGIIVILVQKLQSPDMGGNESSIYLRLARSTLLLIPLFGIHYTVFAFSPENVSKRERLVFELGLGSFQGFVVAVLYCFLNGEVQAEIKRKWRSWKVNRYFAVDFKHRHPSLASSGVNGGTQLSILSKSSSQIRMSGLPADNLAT
# B1: iPS:392524 (bispecific antibody, human IgG1, kappa, lambda, N297G)
# light: QSVLTQPPSVSAAPGQKVTISCSGSSSNIGNNYVSWYQQLPGTAPKLLIYDNNKRPSGIPDRFSGSKSGTSTTLGITGLQTGDEADYYCGTWDSRLSAVVFGGGTKLTVLGQPKANPTVTLFPPSSEELQANKATLVCLISDFYPGAVTVAWKADGSPVKAGVETTKPSKQSNNKYAAKSYLSLTPEQWKSHRSYSCQVTHEGSTVEKTVAPTECS
# heavy: not shown
# chain: QVQLVESGAEVVKPGASVKVSCKASGFTFSRFAMHWVRQAPGQGLEWMGVISYDGGNKYYAESVKGRVTMTRDTSTSTLYMELSSLRSEDTAVYYCARGYDVLTGYPDYWGQGTLVTVSSTVAAPSVFIFPPSDEQLKSGTASVVCLLNNFYPREAKVQWKVDNALQSGNSQESVTEQDSKDSTYSLKSTLTLSKADYEKHKVYACEVTHQGLSSPVTKSFNRGEC
# B2: iPS:392528 (bispecific antibody, human IgG1, kappa, lambda, N297G)
# light: B1 light
# heavy: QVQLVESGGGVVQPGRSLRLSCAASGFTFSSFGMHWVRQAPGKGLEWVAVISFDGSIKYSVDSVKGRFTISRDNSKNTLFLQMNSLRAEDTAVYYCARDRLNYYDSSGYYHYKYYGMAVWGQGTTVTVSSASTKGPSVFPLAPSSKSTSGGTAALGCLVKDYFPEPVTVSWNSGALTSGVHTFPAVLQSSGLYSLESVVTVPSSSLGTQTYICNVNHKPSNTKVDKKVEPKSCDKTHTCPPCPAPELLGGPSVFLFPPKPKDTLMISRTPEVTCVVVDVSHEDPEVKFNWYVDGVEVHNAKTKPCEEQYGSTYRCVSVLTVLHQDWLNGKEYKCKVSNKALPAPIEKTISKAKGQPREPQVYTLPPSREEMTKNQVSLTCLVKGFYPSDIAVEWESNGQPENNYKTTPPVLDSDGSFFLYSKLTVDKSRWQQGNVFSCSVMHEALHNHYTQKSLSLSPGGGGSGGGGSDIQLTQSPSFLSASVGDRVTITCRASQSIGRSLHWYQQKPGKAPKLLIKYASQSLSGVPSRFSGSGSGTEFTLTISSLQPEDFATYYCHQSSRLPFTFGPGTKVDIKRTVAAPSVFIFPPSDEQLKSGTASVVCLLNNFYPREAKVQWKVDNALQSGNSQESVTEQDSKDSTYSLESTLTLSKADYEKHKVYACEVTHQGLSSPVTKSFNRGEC
# chain: QVQLVESGAEVVKPGASVKVSCKASGFTFSRFAMHWVRQAPGQGLEWMGVISYDGGNKYYAESVKGRVTMTRDTSTSTLYMELSSLRSEDTAVYYCARGYDVLTGYPDYWGQGTLVTVSSASTKGPSVFPLAPSSKSTSGGTAALGCLVKDYFPEPVTVSWNSGALTSGVHTFPAVLQSSGLYSLKSVVTVPSSSLGTQTYICNVNHKPSNTKVDKKV
# B3: iPS:392526 (bispecific antibody, human IgG1, kappa, lambda, N297G)
# light: B1 light
# heavy: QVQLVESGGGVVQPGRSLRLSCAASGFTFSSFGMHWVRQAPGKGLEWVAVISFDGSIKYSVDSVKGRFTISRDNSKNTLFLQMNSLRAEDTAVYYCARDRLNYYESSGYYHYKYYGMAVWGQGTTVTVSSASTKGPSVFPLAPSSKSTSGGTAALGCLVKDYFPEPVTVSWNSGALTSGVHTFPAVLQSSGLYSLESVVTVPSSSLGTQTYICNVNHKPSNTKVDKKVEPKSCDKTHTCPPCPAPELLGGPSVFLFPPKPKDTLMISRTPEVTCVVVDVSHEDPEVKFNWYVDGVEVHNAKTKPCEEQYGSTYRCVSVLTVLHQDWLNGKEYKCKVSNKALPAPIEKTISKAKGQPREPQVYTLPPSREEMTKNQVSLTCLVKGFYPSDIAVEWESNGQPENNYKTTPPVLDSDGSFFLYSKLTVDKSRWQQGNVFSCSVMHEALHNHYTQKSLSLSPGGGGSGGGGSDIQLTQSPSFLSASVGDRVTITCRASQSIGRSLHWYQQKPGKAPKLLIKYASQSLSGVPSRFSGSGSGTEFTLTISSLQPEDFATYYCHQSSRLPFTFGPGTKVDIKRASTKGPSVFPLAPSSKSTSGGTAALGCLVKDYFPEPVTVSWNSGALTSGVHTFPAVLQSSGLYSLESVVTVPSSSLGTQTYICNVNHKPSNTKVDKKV
# chain: B1 chain
# B4: iPS:392535 (bispecific antibody, human IgG1, kappa, lambda, N297G)
# light: B1 light with Q39K
# heavy: not shown
# chain: B2 chain with Q39K
# B5: iPS:392529 (bispecific antibody, human IgG1, kappa, lambda, N297G)
# light: B1 light
# heavy: not shown
# chain: B2 chain with Q39K
# B6: iPS:392533 (bispecific antibody, human IgG1, kappa, lambda, N297G)
# light: B1 light
# heavy: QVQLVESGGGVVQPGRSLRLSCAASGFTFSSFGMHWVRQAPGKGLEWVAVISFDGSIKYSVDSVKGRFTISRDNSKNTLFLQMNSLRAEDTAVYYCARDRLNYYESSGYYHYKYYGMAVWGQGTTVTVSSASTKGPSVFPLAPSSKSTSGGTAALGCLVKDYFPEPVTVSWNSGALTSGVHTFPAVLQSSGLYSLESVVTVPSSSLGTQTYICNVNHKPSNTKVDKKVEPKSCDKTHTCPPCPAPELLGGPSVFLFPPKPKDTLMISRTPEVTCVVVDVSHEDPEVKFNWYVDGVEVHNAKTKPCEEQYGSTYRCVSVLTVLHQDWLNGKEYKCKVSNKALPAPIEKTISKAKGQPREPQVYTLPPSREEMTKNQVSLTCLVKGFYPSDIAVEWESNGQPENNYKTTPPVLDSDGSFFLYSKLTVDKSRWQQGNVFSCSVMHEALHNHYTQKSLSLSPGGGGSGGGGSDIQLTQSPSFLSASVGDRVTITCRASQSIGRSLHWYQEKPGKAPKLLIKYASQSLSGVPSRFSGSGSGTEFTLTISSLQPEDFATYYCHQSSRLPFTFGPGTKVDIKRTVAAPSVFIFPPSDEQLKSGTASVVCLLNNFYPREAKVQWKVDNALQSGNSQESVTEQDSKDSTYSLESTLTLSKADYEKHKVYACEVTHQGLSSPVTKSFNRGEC
# chain: B2 chain with Q39K
# B7: iPS:392530 (bispecific antibody, human IgG1, kappa, lambda, N297G)
# light: B1 light with Q39K
# heavy: not shown
# chain: B2 chain
# B8: iPS:392532 (bispecific antibody, human IgG1, kappa, lambda, N297G)
# light: B1 light
# heavy: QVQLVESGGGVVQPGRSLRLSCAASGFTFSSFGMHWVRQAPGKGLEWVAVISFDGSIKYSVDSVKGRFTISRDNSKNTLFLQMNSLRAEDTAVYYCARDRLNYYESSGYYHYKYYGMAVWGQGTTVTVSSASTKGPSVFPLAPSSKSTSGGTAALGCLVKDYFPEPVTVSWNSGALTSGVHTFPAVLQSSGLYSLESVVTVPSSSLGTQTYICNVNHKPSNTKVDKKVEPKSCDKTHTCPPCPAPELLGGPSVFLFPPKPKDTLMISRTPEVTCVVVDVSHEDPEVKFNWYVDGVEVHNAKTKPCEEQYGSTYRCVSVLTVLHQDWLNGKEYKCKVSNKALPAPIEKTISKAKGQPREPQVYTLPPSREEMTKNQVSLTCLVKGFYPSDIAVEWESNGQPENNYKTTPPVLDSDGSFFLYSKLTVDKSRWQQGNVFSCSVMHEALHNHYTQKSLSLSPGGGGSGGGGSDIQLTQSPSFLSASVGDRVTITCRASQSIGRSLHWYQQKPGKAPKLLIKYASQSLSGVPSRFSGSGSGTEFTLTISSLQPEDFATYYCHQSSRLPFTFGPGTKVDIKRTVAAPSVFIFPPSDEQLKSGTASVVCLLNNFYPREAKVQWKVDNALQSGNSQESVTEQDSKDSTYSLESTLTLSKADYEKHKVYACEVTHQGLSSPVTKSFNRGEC
# chain: B2 chain
# B9: iPS:392531 (bispecific antibody, human IgG1, kappa, lambda, N297G)
# light: B1 light with Q39K
# heavy: not shown
# chain: B2 chain with Q39K
# B10: iPS:392527 (bispecific antibody, human IgG1, kappa, lambda, N297G)
# light: B1 light
# heavy: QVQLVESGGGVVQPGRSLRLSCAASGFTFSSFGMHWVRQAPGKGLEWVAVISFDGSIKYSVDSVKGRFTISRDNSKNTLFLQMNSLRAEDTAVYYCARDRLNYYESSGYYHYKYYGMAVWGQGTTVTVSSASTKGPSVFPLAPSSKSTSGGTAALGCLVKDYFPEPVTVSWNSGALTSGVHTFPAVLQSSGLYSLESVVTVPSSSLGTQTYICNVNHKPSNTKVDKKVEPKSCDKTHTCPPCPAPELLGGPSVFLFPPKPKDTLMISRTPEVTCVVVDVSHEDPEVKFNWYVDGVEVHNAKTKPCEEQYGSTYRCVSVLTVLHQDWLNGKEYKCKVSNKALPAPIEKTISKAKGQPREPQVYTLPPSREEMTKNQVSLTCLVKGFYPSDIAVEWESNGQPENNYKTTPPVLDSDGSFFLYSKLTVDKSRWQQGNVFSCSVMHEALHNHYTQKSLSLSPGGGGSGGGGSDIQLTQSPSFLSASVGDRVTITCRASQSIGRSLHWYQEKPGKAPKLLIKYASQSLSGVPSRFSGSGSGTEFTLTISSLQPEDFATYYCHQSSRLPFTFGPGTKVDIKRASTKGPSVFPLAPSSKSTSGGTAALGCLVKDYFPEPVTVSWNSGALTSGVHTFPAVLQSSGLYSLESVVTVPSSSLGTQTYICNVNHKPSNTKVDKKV
# chain: B1 chain with Q39K
# B11: iPS:392525 (bispecific antibody, human IgG1, kappa, lambda, N297G)
# light: B1 light
# heavy: not shown
# chain: B1 chain with Q39K
# B12: iPS:392534 (bispecific antibody, human IgG1, kappa, lambda, N297G)
# light: B1 light with Q39K
# heavy: not shown
# chain: B2 chain
# B13: iPS:392519 (bispecific antibody, human IgG1, kappa, lambda, N297G)
# light: DIQLTQSPSFLSASVGDRVTITCRASQSIGRSLHWYQQKPGKAPKLLIKYASQSLSGVPSRFSGSGSGTEFTLTISSLQPEDFATYYCHQSSRLPFTFGPGTKVDIKRTVAAPSVFIFPPSDEQLKSGTASVVCLLNNFYPREAKVQWKVDNALQSGNSQESVTEQDSKDSTYSLESTLTLSKADYEKHKVYACEVTHQGLSSPVTKSFNRGEC
# heavy: not shown
# chain: QVQLVESGGGVVQPGRSLRLSCAASGFTFSSFGMHWVREAPGKGLEWVAVISFDGSIKYSVDSVKGRFTISRDNSKNTLFLQMNSLRAEDTAVYYCARDRLNYYESSGYYHYKYYGMAVWGQGTTVTVSSGQPKANPTVTLFPPSSEELQANKATLVCLISDFYPGAVTVAWKADGSPVKAGVETTKPSKQSNNKYAAESYLSLTPEQWKSHRSYSCQVTHEGSTVEKTVAPTECS
# B14: iPS:392521 (bispecific antibody, human IgG1, kappa, lambda, N297G)
# light: B13 light
# heavy: not shown
# chain: QVQLVESGGGVVQPGRSLRLSCAASGFTFSSFGMHWVREAPGKGLEWVAVISFDGSIKYSVDSVKGRFTISRDNSKNTLFLQMNSLRAEDTAVYYCARDRLNYYESSGYYHYKYYGMAVWGQGTTVTVSSASTKGPSVFPLAPSSKSTSGGTAALGCLVKDYFPEPVTVSWNSGALTSGVHTFPAVLQSSGLYSLESVVTVPSSSLGTQTYICNVNHKPSNTKVDKKV
# B15: iPS:392523 (bispecific antibody, human IgG1, kappa, lambda, N297G)
# light: B13 light with Q38E
# heavy: not shown
# chain: B14 chain
# B16: iPS:392520 (bispecific antibody, human IgG1, kappa, lambda, N297G)
# light: B13 light
# heavy: not shown
# chain: B14 chain with E39Q
# B17: iPS:392522 (bispecific antibody, human IgG1, kappa, lambda, N297G)
# light: B13 light with Q38E
# heavy: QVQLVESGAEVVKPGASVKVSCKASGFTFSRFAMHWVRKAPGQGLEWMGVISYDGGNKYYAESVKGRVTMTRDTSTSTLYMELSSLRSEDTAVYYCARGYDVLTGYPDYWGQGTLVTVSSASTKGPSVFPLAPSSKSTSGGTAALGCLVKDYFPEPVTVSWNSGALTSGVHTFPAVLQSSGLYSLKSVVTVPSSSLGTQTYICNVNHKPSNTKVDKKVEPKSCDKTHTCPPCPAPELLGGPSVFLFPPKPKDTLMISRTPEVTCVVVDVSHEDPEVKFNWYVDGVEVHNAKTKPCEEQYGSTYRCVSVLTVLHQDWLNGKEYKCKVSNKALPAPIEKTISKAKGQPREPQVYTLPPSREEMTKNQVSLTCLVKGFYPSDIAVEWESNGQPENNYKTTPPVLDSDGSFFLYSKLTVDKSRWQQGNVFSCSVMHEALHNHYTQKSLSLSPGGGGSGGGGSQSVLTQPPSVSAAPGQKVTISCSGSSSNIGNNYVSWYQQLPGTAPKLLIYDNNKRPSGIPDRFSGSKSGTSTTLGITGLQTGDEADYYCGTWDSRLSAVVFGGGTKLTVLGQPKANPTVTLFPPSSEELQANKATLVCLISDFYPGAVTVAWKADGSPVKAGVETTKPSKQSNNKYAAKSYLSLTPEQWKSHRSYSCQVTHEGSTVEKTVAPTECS
# chain: B14 chain with E39Q
# Target: human CGRP receptor (human, UniProt Q16602 23-461; O60894 27-148)
# Sequence (Q16602 23-461 limits assumed, chain 1 of 2): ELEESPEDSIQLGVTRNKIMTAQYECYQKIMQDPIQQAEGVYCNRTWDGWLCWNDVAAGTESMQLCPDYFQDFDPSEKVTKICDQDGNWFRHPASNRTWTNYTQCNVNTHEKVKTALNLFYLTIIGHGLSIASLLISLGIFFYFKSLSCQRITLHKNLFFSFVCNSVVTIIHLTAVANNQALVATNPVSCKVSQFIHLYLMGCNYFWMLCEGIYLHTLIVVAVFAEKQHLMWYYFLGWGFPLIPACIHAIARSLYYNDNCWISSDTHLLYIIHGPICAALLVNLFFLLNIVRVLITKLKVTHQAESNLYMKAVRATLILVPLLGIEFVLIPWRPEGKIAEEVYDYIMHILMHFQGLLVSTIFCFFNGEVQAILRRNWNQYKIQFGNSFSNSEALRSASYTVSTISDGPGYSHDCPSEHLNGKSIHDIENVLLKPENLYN
# Sequence (O60894 27-148 limits assumed, chain 2 of 2): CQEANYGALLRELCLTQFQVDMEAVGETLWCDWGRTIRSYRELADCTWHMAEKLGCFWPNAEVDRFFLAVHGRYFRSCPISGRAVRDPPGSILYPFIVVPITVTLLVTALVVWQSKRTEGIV
# Experiment: cell-based or functional assay
Human CGRP Receptor IC50,"Human CGRP Receptor IC50 (nM), lot #1","Human CGRP Receptor IC50 (nM), lot #2",Binder
0.86 nM,–,–,B1
0.55 nM,–,–,B2
0.71 nM,–,–,B3
0.41 nM,–,–,B4
0.56 nM,–,–,B5
0.59 nM,–,–,B6
0.38 nM,–,–,B7
0.51 nM,–,–,B8
0.42 nM,–,–,B9
0.42 nM,–,–,B10
1.22 nM,–,–,B11
0.37 nM,–,–,B12
81.3 nM,–,–,B13
18.8 nM,–,–,B14
20.4 nM,–,–,B15
10.5 nM,–,–,B16
–,8.8 nM,7.58 nM,B17

# Target: T1, human PAC1 receptor
# Experiment: cell-based or functional assay
Human PAC1 Receptor IC50,"Human PAC1 Receptor IC50 (nM), lot #1","Human PAC1 Receptor IC50 (nM), lot #2",Binder
81.2 nM,–,–,B1
> 1000 nM,–,–,B2
116 nM,–,–,B3
365 nM,–,–,B4
> 1000 nM,–,–,B5
206 nM,–,–,B6
> 1000 nM,–,–,B7
352 nM,–,–,B8
> 1000 nM,–,–,B9
16.4 nM,–,–,B10
37.1 nM,–,–,B11
349 nM,–,–,B12
6.87 nM,–,–,B13
6.88 nM,–,–,B14
5.03 nM,–,–,B15
6.28 nM,–,–,B16
–,9.32 nM,3.29 nM,B17
